We go through two molecules from patent US20260216242A1, “ALPP-SPECIFIC VARIANT ANTIGEN BINDING MOLECULES” (ALMAC DISCOVERY LIMITED, priority 2022, published 2026).

A word on the Kd: it is a measure of binding affinity in units of concentration. A higher Kd goes with a looser complex.

The experiment has as its target T1, hALPI (Homo sapiens, UniProt P09923).
T1 sequence (P09923 with tags, fused parts or gaps): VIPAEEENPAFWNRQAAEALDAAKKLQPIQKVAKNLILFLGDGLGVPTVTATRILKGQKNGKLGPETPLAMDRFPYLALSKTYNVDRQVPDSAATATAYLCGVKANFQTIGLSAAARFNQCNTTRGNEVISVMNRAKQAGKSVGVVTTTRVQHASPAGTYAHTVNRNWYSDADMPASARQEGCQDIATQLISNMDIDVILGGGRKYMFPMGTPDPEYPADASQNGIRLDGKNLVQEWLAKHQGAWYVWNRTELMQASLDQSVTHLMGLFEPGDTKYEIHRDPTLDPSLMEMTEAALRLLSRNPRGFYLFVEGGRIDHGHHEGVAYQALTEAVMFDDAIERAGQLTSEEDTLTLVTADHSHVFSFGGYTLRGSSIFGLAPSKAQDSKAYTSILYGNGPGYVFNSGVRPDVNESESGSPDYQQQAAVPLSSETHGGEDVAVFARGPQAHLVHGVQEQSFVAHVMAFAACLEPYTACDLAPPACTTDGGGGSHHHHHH
Briefly: BLI binding to ALPI His. Conditions: VHH-hFc fusions, very low response values. As to the method: Binding kinetics were determined using the Biolayer Interferometry (BLI) Octet K2 system (Sartorius). Human ALPP, ALPPL2, ALPL (each fused with a cysteine stabilised leucine zipper) and ALPI, (SEQ ID NO: 265, SEQ ID NO: 266 and SEQ ID NO: 267 and SEQ ID NO: 264 respectively) were immobilised in sodium acetate pH5 buffer to AR2G sensors using amine coupling. All assays were conducted in PBS with a plate temperature of 25° C. Ka (M^−1s^−1), Kd (s^−1) and KD (nM) values were determined using Octet Data Analysis High Throughput software (ForteBio) for Biolayer Interferometry.
Binding kinetics were determined using the Biolayer Interferometry (BLI) Octet K2 or R4 system (Sartorius). Human ALPP, ALPPL2 and ALPL all fused with a disulphide stabilised leucine zipper (SEQ ID NO: 265, SEQ ID NO: 266, and SEQ ID NO: 267) and ALPI His (SEQ ID NO: 264) were used in BLI experiments. […] Ka (M^−1s^−1), Kd (s^−1) and KD (nM) values were determined using Octet Data Analysis High Throughput software (Sartorius) for Biolayer Interferometry.
Binding kinetics were determined using the Biolayer Interferometry (BLI) Octet K2 or R4 system (Sartorius). […] Ka (M^−1s^−1), Kd (s^−1) and KD (nM) values were determined using Octet Data Analysis High Throughput software (Sartorius) for Biolayer Interferometry.

B1: B01: ALPP/ALPPL2 targeting VHH domain, SEQ ID NO: 20 (protein)
VHH: QVQLVESGGGLVQAGGSLRLSCEVTRSPMPIDTMAWYRQAPGRQRELVAIISRSGSTNYADSVKGRFTISRNDTKSTMYKSTMYLKMNTLELEDTGVYYCNAVGLWNGAEYWGQGTQVTVSS
Molecule B1 showed a dissociation constant (Kd) of 148 nM.

B2: F08: ALPP/ALPPL2 targeting VHH domain, SEQ ID NO: 35 (protein)
VHH: QVQLVESGGGSVQAGGSLRLSCAASGPSLSNYAMGWFRQAPGKEREFVAGISWGGGRTSYTDSVKGRFTISRDNAKNTVYLQMNNLKPEDTGVYYCAGRYGRGRNVEYEYDYWGQGTQVTVSS
The molecule B2 had a Kd of 10.8 nM.
